Data taken from paper PMC4974474.
One block for each substance: values may come before it.

How the values were obtained:
POC3 = test: SAXS; each POC alone, 50 μM; oligomeric state from the total scattering
POC1 = test: as above
POC1+POC2+POC3 assembly = test: SAXS; POC1+POC2+POC3 (1:1:1) at 50 μM; beamline B21, Diamond Light Source
POC2 = test: SAXS; each POC alone, 50 μM; oligomeric state from the total scattering

stoichiometry N (POC3): 3
Substance: POC3

stoichiometry N (POC1): 2
Substance: POC1

stoichiometry N (POC1+POC2+POC3 assembly): 2
Substance: POC1+POC2+POC3 assembly (complex)

stoichiometry N (POC2): 3
Substance: POC2
